Experimental data: publication PMC3718736

Molecular target: VHH2-Fc antibody (VHH C2 fused to the Fc of human IgG1) (llama (Lama glama))
Assay: SPR; Biacore 3000; […] (10 mM acetate pH 3.5); […]

Chain of VHH2-Fc antibody (VHH C2 fused to the Fc of human IgG1) (llama (Lama glama)) (heavy, as listed by the source): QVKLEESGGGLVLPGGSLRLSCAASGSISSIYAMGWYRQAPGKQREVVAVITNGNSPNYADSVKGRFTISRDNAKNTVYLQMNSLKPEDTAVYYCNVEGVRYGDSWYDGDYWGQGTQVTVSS

α-cobratoxin (from UniProt P01391 1-71) (natural protein)
koff: 5e-05 s⁻¹
